Laboratory results as given in US20110008326A1 (published 2011).

Target: T1, Human, recombinant IL-4R-Fc protein (human, UniProt P24394 26-232)
T1 construct: also called immobilized receptor
T1 sequence: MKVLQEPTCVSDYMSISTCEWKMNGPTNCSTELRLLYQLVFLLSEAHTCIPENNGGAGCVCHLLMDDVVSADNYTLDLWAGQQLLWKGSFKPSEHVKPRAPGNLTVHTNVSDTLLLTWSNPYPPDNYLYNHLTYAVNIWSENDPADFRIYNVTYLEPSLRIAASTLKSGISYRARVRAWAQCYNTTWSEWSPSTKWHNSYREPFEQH
Assay: competition ELISA on IL-4R-Fc coated plates; competitor: 10 ng/ml mouse antibody X2/45
Description: Human, recombinant IL-4R-Fc protein was immobilized on ELISA plates at 100 ng/well followed by blocking of free binding sites.

B1: humanised anti-IL-4R antibody (variable regions SEQ ID NOs: 13 and 14) (antibody, V domains shown)
VH: EVQLVESGGGLVKPGGSLRLSCAASGFTFNTNAMNWVRQAPGKGLEWVARIRSKSNNYATYYADSVKDRFTLSRDDSKNTLYLQMNSLKTEDTAVYYCTRDRGWGAMDYWGQGTTVTVSS
VL: DIQMTQSPSSLSASVGDRVTITCSASQDINNYLNWYQQKPGKAPKLLIYYTSSLHSGVPSRFSGSGSGTDFTLTISSLQPEDFATYYCQQFSNLPWTFGGGTKLEIK
notes: Full length antibody made in Hek 293T cells; light chain of kappa type; also called humanised antibody; humanised version of X2/45
B1: binds.
